Experimental findings from US20250326839A1 (VIGIL NEUROSCIENCE, published 2025) are described below.

The target in test [1] is T1, human TREM2 (human, UniProt Q9NZC2 19-174, limits assumed).
T1 construct: also called triggering receptor expressed on myeloid cells 2
T1 sequence: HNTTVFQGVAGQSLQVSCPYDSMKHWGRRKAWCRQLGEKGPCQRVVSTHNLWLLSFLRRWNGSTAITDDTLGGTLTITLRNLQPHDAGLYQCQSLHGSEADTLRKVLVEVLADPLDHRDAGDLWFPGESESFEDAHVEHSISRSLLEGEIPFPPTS
Kind of test: 2nd screen, 100 nM.

Test [2] addresses T1, human TREM2. Kind of test: 1st screen, 110 nM Ab.

B1: V6 (antibody, V domains shown)
VH: EVQLVQSGAEVKKPGESLKISCKGSGYSFTSMWIAWVRQMPGKGLEWMGIIYPGDSDTRYSPSFQGQVTISADKSISTAYLQWSSLKASDTAMYFCARQRTFYYDSSDYFDYWGQGTLVTVSS
VL: DIQMTQSPSSVSASVGDRVTITCRASQGISSWLAWYQQKPGKAPKLLIYAASSLQNGVPSRFSGSGSGTDFTLTISSLQPEDFATYFCQQADSFPRTFGQGTKLEIK
notes: also called 6E7 variant V6
Turning to B1, the “Binding Signal” value with human TREM2 [1] is 0.56 fold over 6E7 parental antibody; with human TREM2 [2], 0.2 fold over 6E7 parental antibody.

B2: V19 (antibody, V domains shown)
VH: EVQLVQSGAEVKKPGESLKISCKGSGYSFTSSWIAWVRQMPGKGLEWMGIIYPGDSDTRYSPSFQGQVTISADKSISTAYLQWSSLKASDTAMYFCARQRTFYYDSSDYFDYWGQGTLVTVSS
VL: DIQMTQSPSSVSASVGDRVTITCRASQGISSWLAWYQQKPGKAPKLLIYAASSLQNGVPSRFSGSGSGTDFTLTISSLQPEDFATYFCQQADSFPRTFGQGTKLEIK
notes: also called 6E7 variant V19
Consider B2, for which the “Binding Signal” value was 0.48 fold over 6E7 parental antibody in the test with human TREM2 [1] and 0.59 fold over 6E7 parental antibody with human TREM2 [2].

B3: V9 (antibody, V domains shown)
VH: EVQLVQSGAEVKKPGESLKISCKGSGYSFTSYWIAWVRQMPGKGLEWMGIIYPGDSDTRYSPSFQGQVTISADKSISTAYLQWSSLKASDTAMYFCARQRGFYYDSSDYFDYWGQGTLVTVSS
VL: DIQMTQSPSSVSASVGDRVTITCRASQGISSWLAWYQQKPGKAPKLLIYAASSLQNGVPSRFSGSGSGTDFTLTISSLQPEDFATYFCQQADSFPRTFGQGTKLEIK
notes: also called 6E7 variant V9; LV-16/HV-201
In the case of B3, the “Binding Signal” value in the test with human TREM2 [1] is 0.54 fold over 6E7 parental antibody; with human TREM2 [2], 0.67 fold over 6E7 parental antibody.

B4: V21 (antibody, V domains shown)
VH: EVQLVQSGAEVKKPGESLKISCKGSGYSFTSYWIAWVRQMPGKGLEWMGIIYPGDSDTRYSPSFQGQVTISADKSISTAYLQWSSLKASDTAMYFCARQRTFYYDSSDFFDYWGQGTLVTVSS
VL: DIQMTQSPSSVSASVGDRVTITCRASQGISSWLAWYQQKPGKAPKLLIYAASSLQNGVPSRFSGSGSGTDFTLTISSLQPEDFATYFCQQADSFPRTFGQGTKLEIK
notes: also called 6E7 variant V21
As to B4, the “Binding Signal” value is 0.68 fold over 6E7 parental antibody with human TREM2 [1] and 0.76 fold over 6E7 parental antibody in the test with human TREM2 [2].

B5: V30 (antibody, V domains shown)
VH: EVQLVQSGAEVKKPGESLKISCKGSGSSFTSYWIAWVRQMPGKGLEWMGIIYPGDSDTRYSPSFQGQVTISADKSISTAYLQWSSLKASDTAMYFCARQRTFYYDSSDYFDYWGQGTLVTVSS
VL: DIQMTQSPSSVSASVGDRVTITCRASQGISSWLAWYQQKPGKAPKLLIYAASSLQNGVPSRFSGSGSGTDFTLTISSLQPEDFATYFCQQADSFPRTFGQGTKLEIK
notes: also called 6E7 variant V30; LV-16/HV-202
Regarding B5, the “Binding Signal” value in the test with human TREM2 [1] is 0.72 fold over 6E7 parental antibody; in the test with human TREM2 [2], 0.79 fold over 6E7 parental antibody.

B6: V11 (antibody, V domains shown)
VH: EVQLVQSGAEVKKPGESLKISCKGSGYSFTSYWIAWVRQMPGKGLEWMGIIYPGDSDTRYSPSFQGQVTISADKSISTAYLQWSSLKASDTAMYFCARQRTFYYDSSDYFDYWGQGTLVTVSS
VL: DIQMTQSPSSVSASVGDRVTITCRASQGISSWLAWYQQKPGKAPKLLIYAASSLQNGVPSRFSGSGSGTDFTLTISSLQPEDFATYFCQQAASFPRTFGQGTKLEIK
notes: also called 6E7 variant V11
With B6, the “Binding Signal” value was 0.42 fold over 6E7 parental antibody in the test with human TREM2 [1] and 0.79 fold over 6E7 parental antibody in the test with human TREM2 [2].

B7: V7 (antibody, V domains shown)
VH: EVQLVQSGAEVKKPGESLKISCKGSGYSFTSEWIAWVRQMPGKGLEWMGIIYPGDSDTRYSPSFQGQVTISADKSISTAYLQWSSLKASDTAMYFCARQRTFYYDSSDYFDYWGQGTLVTVSS
VL: DIQMTQSPSSVSASVGDRVTITCRASQGISSWLAWYQQKPGKAPKLLIYAASSLQNGVPSRFSGSGSGTDFTLTISSLQPEDFATYFCQQADSFPRTFGQGTKLEIK
notes: also called 6E7 variant V7
Regarding B7, the “Binding Signal” value in the test with human TREM2 [1] was 0.32 fold over 6E7 parental antibody; with human TREM2 [2], 0.11 fold over 6E7 parental antibody.

B8: V42 (antibody, V domains shown)
VH: EVQLVQSGAEVKKPGESLKISCKGSGYSFTSAWIAWVRQMPGKGLEWMGIIYPGDSDTRYSPSFQGQVTISADKSISTAYLQWSSLKASDTAMYFCARQRTFYYDSSDYFDYWGQGTLVTVSS
VL: DIQMTQSPSSVSASVGDRVTITCRASQGISSWLAWYQQKPGKAPKLLIYAASSLQNGVPSRFSGSGSGTDFTLTISSLQPEDFATYFCQQADSFPRTFGQGTKLEIK
notes: also called 6E7 variant V42
For B8, the “Binding Signal” value with human TREM2 [1] is 0.41 fold over 6E7 parental antibody; with human TREM2 [2], 0.45 fold over 6E7 parental antibody.

B9: V23 (antibody, V domains shown)
VH: EVQLVQSGAEVKKPGESLKISCKGSGYSFTSYWIAWVRQMPGKGLEWMGIIYPGDSDTRYSPSFQGQVTISADKSISTAYLQWSSLKASDTAMYFCARQRTFYYDSSDYFDYWGQGTLVTVSS
VL: DIQMTQSPSSVSASVGDRVTITCRASQGISSWLAWYQQKPGKAPKLLIYAASSLQNGVPSRFSGSGSGTDFTLTISSLQPEDFATYFCQQADSFPLTFGQGTKLEIK
notes: also called 6E7 variant V23; LV-202/HV-15
With B9, the “Binding Signal” value with human TREM2 [1] and with human TREM2 [2] was 0.4 fold over 6E7 parental antibody throughout.

B10: V32 (antibody, V domains shown)
VH: EVQLVQSGAEVKKPGESLKISCKGSGYSFTSYWIAWVRQMPGKGLEWMGIIYPGDSDTRYSNSFQGQVTISADKSISTAYLQWSSLKASDTAMYFCARQRTFYYDSSDYFDYWGQGTLVTVSS
VL: DIQMTQSPSSVSASVGDRVTITCRASQGISSWLAWYQQKPGKAPKLLIYAASSLQNGVPSRFSGSGSGTDFTLTISSLQPEDFATYFCQQADSFPRTFGQGTKLEIK
notes: also called 6E7 variant V32
Regarding B10, the “Binding Signal” value with human TREM2 [1] was 0.89 fold over 6E7 parental antibody; with human TREM2 [2], 0.82 fold over 6E7 parental antibody.

B11: V33 (antibody, V domains shown)
VH: EVQLVQSGAEVKKPGESLKISCKGSGYSFTSYWIAWVRQMPGKGLEWMGIIYPGDSDTRYSPSFQGQVTISADKSISTAYLQWSSLKASDTAMYFCARQRTFYGDSSDYFDYWGQGTLVTVSS
VL: DIQMTQSPSSVSASVGDRVTITCRASQGISSWLAWYQQKPGKAPKLLIYAASSLQNGVPSRFSGSGSGTDFTLTISSLQPEDFATYFCQQADSFPRTFGQGTKLEIK
notes: also called 6E7 variant V33; LV-16/HV-203
Consider B11, for which the “Binding Signal” value with human TREM2 [1] was 0.34 fold over 6E7 parental antibody; with human TREM2 [2], 0.23 fold over 6E7 parental antibody.

B12: V20 (antibody, V domains shown)
VH: EVQLVQSGAEVKKPGESLKISCKGSGYSFTSYWIAWVRQMPGKGLEWMGRIYPGDSDTRYSPSFQGQVTISADKSISTAYLQWSSLKASDTAMYFCARQRTFYYDSSDYFDYWGQGTLVTVSS
VL: DIQMTQSPSSVSASVGDRVTITCRASQGISSWLAWYQQKPGKAPKLLIYAASSLQNGVPSRFSGSGSGTDFTLTISSLQPEDFATYFCQQADSFPRTFGQGTKLEIK
notes: also called 6E7 variant V20
With B12, the “Binding Signal” value in the test with human TREM2 [1] was 0.52 fold over 6E7 parental antibody; with human TREM2 [2], 0.18 fold over 6E7 parental antibody.

B13: V35 (antibody, V domains shown)
VH: EVQLVQSGAEVKKPGESLKISCKGSGYSFTSYWIAWVRQMPGKGLEWMGIIYPGDSDTRYSPSFQGQVTISADKSISTAYLQWSSLKASDTAMYFCARQRTFYYDSSDYFDYWGQGTLVTVSS
VL: DIQMTQSPSSVSASVGDRVTITCRASQGISSWLAWYQQKPGKAPKLLIYAASSLQNGVPSRFSGSGSGTDFTLTISSLQPEDFATYFCQQAYSFPRTFGQGTKLEIK
notes: also called 6E7 variant V35
As to B13, the “Binding Signal” value is 0.29 fold over 6E7 parental antibody with human TREM2 [1] and 0.21 fold over 6E7 parental antibody with human TREM2 [2].

B14: V22 (antibody, V domains shown)
VH: EVQLVQSGAEVKKPGESLKISCKGSGYSFTSYWIAWVRQMPGKGLEWMGIIYPGDSDTRYSPSFQGQVTISADKSISTAYLQWSSLKASDTAMYFCARQRTFYYDSSDYFDYWGQGTLVTVSS
VL: DIQMTQSPSSVSASVGDRVTITCRASQGISSWLAWYQQKPGKAPKLLIYRASSLQNGVPSRFSGSGSGTDFTLTISSLQPEDFATYFCQQADSFPRTFGQGTKLEIK
notes: also called 6E7 variant V22
Take B14: the results for the “Binding Signal” value with human TREM2 [1] and with human TREM2 [2] were 0.71 fold over 6E7 parental antibody and 0.3 fold over 6E7 parental antibody, respectively.

B15: V34 (antibody, V domains shown)
VH: EVQLVQSGAEVKKPGESLKISCKGSGYSFTSYWIAWVRQMPGKGLEWMGIIYPGDSDTRYSPSFQGQVTISADKSISTAYLQWSSLKASDTAMYFCARQRTFYYDSSDYFDYWGQGTLVTVSS
VL: DIQMTQSPSSVSASVGDRVTITCRASQGISSWLAWYQQKPGKAPKLLIYAASSLQDGVPSRFSGSGSGTDFTLTISSLQPEDFATYFCQQADSFPRTFGQGTKLEIK
notes: also called 6E7 variant V34
As to B15, the “Binding Signal” value in the test with human TREM2 [1] was 1.02 fold over 6E7 parental antibody; with human TREM2 [2], 0.34 fold over 6E7 parental antibody.

B16: V10 (antibody, V domains shown)
VH: EVQLVQSGAEVKKPGESLKISCKGSGYSFTSYWIAWVRQMPGKGLEWMGIIYPGDSDTRYSPSFQGQVTISADKSISTAYLQWSSLKASDTAMYFCARQRTFYYDSSDYFDYWGQGTLVTVSS
VL: DIQMTQSPSSVSASVGDRVTITCRASQGISSWLAWYQQKPGKAPKLLIYSASSLQNGVPSRFSGSGSGTDFTLTISSLQPEDFATYFCQQADSFPRTFGQGTKLEIK
notes: also called 6E7 variant V10; LV-201/HV-15
For the molecule B16, the “Binding Signal” value was 0.7 fold over 6E7 parental antibody in the test with human TREM2 [1] and 0.76 fold over 6E7 parental antibody with human TREM2 [2].

B17: V31 (antibody, V domains shown)
VH: EVQLVQSGAEVKKPGESLKISCKGSGYSFTSYWIAWVRQMPGKGLEWMGIIYPGDSETRYSPSFQGQVTISADKSISTAYLQWSSLKASDTAMYFCARQRTFYYDSSDYFDYWGQGTLVTVSS
VL: DIQMTQSPSSVSASVGDRVTITCRASQGISSWLAWYQQKPGKAPKLLIYAASSLQNGVPSRFSGSGSGTDFTLTISSLQPEDFATYFCQQADSFPRTFGQGTKLEIK
notes: also called 6E7 variant V31
With B17, the results for the “Binding Signal” value with human TREM2 [1] and with human TREM2 [2] were 0.73 fold over 6E7 parental antibody and 0.61 fold over 6E7 parental antibody, respectively.

B18: V18 (antibody, V domains shown)
VH: EVQLVQSGAEVKKPGESLKISCKGSGYSFTSYHIAWVRQMPGKGLEWMGIIYPGDSDTRYSPSFQGQVTISADKSISTAYLQWSSLKASDTAMYFCARQRTFYYDSSDYFDYWGQGTLVTVSS
VL: DIQMTQSPSSVSASVGDRVTITCRASQGISSWLAWYQQKPGKAPKLLIYAASSLQNGVPSRFSGSGSGTDFTLTISSLQPEDFATYFCQQADSFPRTFGQGTKLEIK
notes: also called 6E7 variant V18
Consider B18, for which the “Binding Signal” value with human TREM2 [1] is 0.42 fold over 6E7 parental antibody; with human TREM2 [2], 0.17 fold over 6E7 parental antibody.

B19: V8 (antibody, V domains shown)
VH: EVQLVQSGAEVKKPGESLKISCKGSGYSFTSYWIAWVRQMPGKGLEWMGIIYPGDSDTKYSPSFQGQVTISADKSISTAYLQWSSLKASDTAMYFCARQRTFYYDSSDYFDYWGQGTLVTVSS
VL: DIQMTQSPSSVSASVGDRVTITCRASQGISSWLAWYQQKPGKAPKLLIYAASSLQNGVPSRFSGSGSGTDFTLTISSLQPEDFATYFCQQADSFPRTFGQGTKLEIK
notes: also called 6E7 variant V8
For the molecule B19, the “Binding Signal” value with human TREM2 [1] was 0.77 fold over 6E7 parental antibody; with human TREM2 [2], 0.28 fold over 6E7 parental antibody.
